Assay results from patent US20090118184A1 (UNIVERSITY OF ROCHESTER, published 2009).

Molecular target: T1, factor VIIIa A1/A3C1C2 dimer, E1829A (human, UniProt P00451 20-391; P00451 1709-2351)
T1 sequence 1: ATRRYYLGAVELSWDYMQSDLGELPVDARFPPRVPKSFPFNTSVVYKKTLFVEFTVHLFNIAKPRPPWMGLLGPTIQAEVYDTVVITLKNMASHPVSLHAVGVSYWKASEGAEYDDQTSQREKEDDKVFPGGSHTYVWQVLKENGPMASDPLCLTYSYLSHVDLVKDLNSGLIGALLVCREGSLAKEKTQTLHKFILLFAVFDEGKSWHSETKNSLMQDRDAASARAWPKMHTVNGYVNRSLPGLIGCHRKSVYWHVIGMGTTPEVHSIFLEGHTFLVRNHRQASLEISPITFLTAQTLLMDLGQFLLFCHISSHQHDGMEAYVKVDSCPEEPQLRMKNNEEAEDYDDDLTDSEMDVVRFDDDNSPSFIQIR
T1 sequence 2: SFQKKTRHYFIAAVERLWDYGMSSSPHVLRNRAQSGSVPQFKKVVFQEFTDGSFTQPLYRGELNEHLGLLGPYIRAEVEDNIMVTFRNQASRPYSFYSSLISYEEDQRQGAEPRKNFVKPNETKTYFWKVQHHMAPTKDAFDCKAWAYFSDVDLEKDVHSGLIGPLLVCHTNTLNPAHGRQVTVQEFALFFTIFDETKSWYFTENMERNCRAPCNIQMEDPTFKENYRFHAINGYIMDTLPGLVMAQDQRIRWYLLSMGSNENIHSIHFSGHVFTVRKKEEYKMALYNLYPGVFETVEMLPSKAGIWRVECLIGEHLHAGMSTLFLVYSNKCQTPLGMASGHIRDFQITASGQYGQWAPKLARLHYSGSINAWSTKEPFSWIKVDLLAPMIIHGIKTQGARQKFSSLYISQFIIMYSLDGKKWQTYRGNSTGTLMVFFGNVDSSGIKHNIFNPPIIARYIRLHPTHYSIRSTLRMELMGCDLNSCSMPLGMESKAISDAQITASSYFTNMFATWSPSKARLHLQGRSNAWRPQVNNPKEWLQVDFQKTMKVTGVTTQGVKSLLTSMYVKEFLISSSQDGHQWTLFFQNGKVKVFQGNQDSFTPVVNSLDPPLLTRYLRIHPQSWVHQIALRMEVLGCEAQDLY
Assay: cell-based or functional assay

B1: factor VIIIa A2 subunit, wild type (other)
chain: SVAKKHPKTWVHYIAAEEEDWDYAPLVLAPDDRSYKSQYLNNGPQRIGRKYKKVRFMAYTDETFKTREAIQHESGILGPLLYGEVGDTLLIIFKNQASRPYNIYPHGITDVRPLYSRRLPKGVKHLKDFPILPGEIFKYKWTVTVEDGPTKSDPRCLTRYYSSFVNMERDLASGLIGPLLICYKESVDQRGNQIMSDKRNVILFSVFDENRSWYLTENIQRFLPNPAGVQLEDPEFQASNIMHSINGYVFDSLQLSVCLHEVAYWYILSIGAQTDFLSVFFSGYTFKHKMVYEDTLTLFPFSGETVFMSMENPGLWILGCHNSDFRNRGMTALLKVSSCDKNTGDYYEDSYEDISAYLLSKNNAIEPR
rate of factor VIIIa decay compared with WT, factor IXa present: 5 fold
